T1: betaKlotho (Mus musculus, UniProt Q99N32)
T1 construct: a V5 tag and a His tag were added to the C-terminus of the extracellular domain of betaKlotho; made in house
T1 sequence (Q99N32 1-992): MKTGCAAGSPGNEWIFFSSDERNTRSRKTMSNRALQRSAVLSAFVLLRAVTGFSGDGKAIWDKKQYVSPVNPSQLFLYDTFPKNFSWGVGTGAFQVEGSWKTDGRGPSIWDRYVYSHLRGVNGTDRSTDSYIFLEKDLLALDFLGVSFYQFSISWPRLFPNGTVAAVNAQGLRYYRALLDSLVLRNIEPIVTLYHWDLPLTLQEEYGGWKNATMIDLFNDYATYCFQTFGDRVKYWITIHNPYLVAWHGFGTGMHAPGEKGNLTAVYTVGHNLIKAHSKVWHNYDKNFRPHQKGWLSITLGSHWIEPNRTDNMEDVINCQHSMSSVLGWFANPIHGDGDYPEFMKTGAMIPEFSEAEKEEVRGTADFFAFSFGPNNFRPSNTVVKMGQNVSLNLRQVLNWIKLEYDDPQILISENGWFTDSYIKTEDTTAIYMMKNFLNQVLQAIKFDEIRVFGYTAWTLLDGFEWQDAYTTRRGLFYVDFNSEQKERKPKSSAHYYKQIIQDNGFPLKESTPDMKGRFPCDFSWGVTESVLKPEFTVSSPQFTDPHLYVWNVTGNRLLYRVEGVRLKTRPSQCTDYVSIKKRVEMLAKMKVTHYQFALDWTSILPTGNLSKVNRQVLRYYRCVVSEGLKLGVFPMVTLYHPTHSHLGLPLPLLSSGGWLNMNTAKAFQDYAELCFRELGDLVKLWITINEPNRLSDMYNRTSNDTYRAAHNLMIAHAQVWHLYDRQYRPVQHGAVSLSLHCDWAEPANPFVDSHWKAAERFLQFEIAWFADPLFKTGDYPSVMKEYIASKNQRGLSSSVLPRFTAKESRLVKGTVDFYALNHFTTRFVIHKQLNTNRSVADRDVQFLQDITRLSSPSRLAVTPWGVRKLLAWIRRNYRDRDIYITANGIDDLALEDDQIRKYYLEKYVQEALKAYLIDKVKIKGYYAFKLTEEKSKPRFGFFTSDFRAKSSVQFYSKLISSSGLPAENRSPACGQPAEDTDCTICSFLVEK

B1: FGF21: fibroblast growth factor 21; mouse-derived protein used in Examples 1-7 and 10-13 (protein)
chain: AYPIPDSSPLLQFGGQVRQRYLYTDDDQDTEAHLEIREDGTVVGAAHRSPESLLELKALKPGVIQILGVKASRFLCQQPDGALYGSPHFDPEACSFRELLLEDGYNVYQSEAHGLPLRLPQKDSPNQDATSWGPVRFLPMPGLLHEPQDQAGFLPPEPPDVGSSDPLSMVEPLQGRSPSYAS

Legend:
[1] = target: T2, humanized FGFR3c/humanized betaKlotho (hβKlotho)-expressing cells (Homo sapiens, UniProt P22607+Q86Z14, A441S/A461E/A470D/A499P/A500N/A559S/A717S/A734V/A765M/C582S/D512S/D516E/D576E/D580N/D722E/D758Q/D785E/DEL405-414/E426D/E447G/E729D/E768D/F566Y/F579Y/F591S/F767L/G446S/G448T/G548D/G773S/G774F/H721N/I440P/I494L/I698V/I726M/INS417HSQMAVHKLAKSI/INS423TV/INS780T/K420R/K464R/K501R/K583H/L398M/L425A/L457Y/L554I/L645I/L752V/M488L/N428S/N434G/N453G/N644H/P401G/P402T/P436L/P502V/P584N/P778R/Q611K/Q775P/R397K/R399K/R416D/R498K/R568Q/S432N/S468P/S578C/S781C/T435V/T450M/T473V/T504K/T581P/T590S/T753A/T757N/V503T/V523I/V642I/V670I/V751I/V754L); test: DNA synthesis in humanized FGFR3c/humanized betaKlotho-expressing BaF3 cells; type: cell-based; settings: humanized FGFR3c and humanized betaKlotho; 10 μg/ml heparin
T2 construct: expressed in transfected cells; host or cells: BaF3 (mouse pro-B) cells
Procedure: The homology between human FGFR3 and mouse FGFR3 at the amino acid sequence level is 93%. […] The cDNA of humanized FGFR3c was prepared from a commercially available human RNA sample (Takara Bio Inc.) by PCR. The sequence of its intracellular portion was substituted with the sequence of humanized FGFR1, and it was then introduced into an expression vector having an SRalpha promoter (pSRalpha). The FGFR3c expression vector was introduced into BaF3 cells by an electroporation method, so as to obtain FGFR3c-expressing BaF3 cells as G418-resistant clones. In the case of FGFR3c/betaKlotho-co-expressing cells, a betaKlotho expression vector was introduced into the FGFR3c-expressing BaF3 cells, so as to obtain the aforementioned cells as Puromycin-resistant clones. In the presence of heparin, humanized FGF21 was added in various types of concentrations to FGFR3c-expressing cells or FGFR3c/betaKlotho-co-expressing cells, and the amount of DNA synthesized was then measured.

betaKlotho = target: T1, betaKlotho; test: Co-precipitation of FGF21 with soluble betaKlotho protein (anti-V5 beads, immunoblotting); type: binding; settings: presence or absence of heparin
Procedure: In the present example, the formation of a complex between betaKlotho and an FGF receptor or FGF21 was examined in a biochemical manner. Specifically, a V5 tag and a His tag were added to the C-terminus of the extracellular domain of betaKlotho in a tandem manner to prepare a soluble protein. Thereafter, the soluble betaKlotho protein was incubated with FGF21 in a test tube in the presence or absence of heparin, and betaKlotho was then precipitated using anti-V5 tag antibody-immobilized beads. Whether or not FGF21 bound to betaKlotho and was co-precipitated therewith was analyzed by an immunoblotting method.

[2] = tested on: undifferentiated 3T3-L1 fibroblasts; test: GLUT1 mRNA expression in undifferentiated 3T3-L1 fibroblasts; type: cell-based; settings: various concentrations, 6 hours
Procedure: It has been reported that FGF21 allows adipocytes to increasingly express glucose transporter 1 (GLUT1). In the present example, as cultured adipocytes, there were used 3T3-L1 cells that are fibroblasts having the ability to differentiate into adipocytes by controlling culture conditions. The cells were cultured in a culture solution of a Dulbecco's modified Eagle medium (DMEM) containing 10% fetal bovine serum (FBS), so as to prepare cells maintaining an undifferentiated property as fibroblasts. The prepared cells were cultured in a test system, and they were allowed to grow to a confluent state. The cells were then left for 2 days. Thereafter, the culture solution was exchanged with DMEM as a culture solution used for differentiation induction, which comprised 10% FBS, 0.25 μM dexamethasone, 0.5 mM methyl isobutyl xanthine, and 5 μg/ml insulin. The cells were cultured for 2 days. […] The term “cells having the properties of adipocytes” is used herein to mean cells, which conduct intracellular metabolism specific to adipocytes and have cytoplasm in which large quantities of fat droplets are accumulated.
FGF21 were added in various types of concentrations to such different types of culture solutions, and the cells were further culture for 6 hours. Thereafter, RNA was extracted, and the copy number of GLUT1 was counted.

T2 sequence (P22607 other isoform, or with tags, fused parts or gaps with the stated changes): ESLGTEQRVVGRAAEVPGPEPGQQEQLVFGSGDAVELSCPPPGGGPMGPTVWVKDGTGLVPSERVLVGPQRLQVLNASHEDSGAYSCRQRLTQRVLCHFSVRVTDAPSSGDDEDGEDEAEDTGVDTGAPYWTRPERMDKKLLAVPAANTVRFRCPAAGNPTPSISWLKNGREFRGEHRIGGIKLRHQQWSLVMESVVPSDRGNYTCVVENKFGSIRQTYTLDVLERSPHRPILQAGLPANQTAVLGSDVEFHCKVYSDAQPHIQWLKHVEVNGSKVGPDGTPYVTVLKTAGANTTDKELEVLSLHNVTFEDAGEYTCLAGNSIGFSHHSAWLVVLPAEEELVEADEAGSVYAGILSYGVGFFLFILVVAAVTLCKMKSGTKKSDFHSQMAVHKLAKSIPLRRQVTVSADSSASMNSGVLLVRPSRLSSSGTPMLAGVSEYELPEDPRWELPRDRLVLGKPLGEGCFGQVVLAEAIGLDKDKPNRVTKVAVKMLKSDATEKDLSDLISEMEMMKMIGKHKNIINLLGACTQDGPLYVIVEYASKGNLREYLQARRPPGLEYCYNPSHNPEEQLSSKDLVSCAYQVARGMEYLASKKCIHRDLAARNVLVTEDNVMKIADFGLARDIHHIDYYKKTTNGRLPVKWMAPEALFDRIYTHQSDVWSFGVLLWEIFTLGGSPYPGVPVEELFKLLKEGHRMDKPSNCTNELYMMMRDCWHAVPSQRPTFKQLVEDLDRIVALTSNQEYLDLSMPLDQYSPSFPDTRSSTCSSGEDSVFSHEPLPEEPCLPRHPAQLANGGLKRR
T2 sequence (Q86Z14 whole entry, stated change not applied): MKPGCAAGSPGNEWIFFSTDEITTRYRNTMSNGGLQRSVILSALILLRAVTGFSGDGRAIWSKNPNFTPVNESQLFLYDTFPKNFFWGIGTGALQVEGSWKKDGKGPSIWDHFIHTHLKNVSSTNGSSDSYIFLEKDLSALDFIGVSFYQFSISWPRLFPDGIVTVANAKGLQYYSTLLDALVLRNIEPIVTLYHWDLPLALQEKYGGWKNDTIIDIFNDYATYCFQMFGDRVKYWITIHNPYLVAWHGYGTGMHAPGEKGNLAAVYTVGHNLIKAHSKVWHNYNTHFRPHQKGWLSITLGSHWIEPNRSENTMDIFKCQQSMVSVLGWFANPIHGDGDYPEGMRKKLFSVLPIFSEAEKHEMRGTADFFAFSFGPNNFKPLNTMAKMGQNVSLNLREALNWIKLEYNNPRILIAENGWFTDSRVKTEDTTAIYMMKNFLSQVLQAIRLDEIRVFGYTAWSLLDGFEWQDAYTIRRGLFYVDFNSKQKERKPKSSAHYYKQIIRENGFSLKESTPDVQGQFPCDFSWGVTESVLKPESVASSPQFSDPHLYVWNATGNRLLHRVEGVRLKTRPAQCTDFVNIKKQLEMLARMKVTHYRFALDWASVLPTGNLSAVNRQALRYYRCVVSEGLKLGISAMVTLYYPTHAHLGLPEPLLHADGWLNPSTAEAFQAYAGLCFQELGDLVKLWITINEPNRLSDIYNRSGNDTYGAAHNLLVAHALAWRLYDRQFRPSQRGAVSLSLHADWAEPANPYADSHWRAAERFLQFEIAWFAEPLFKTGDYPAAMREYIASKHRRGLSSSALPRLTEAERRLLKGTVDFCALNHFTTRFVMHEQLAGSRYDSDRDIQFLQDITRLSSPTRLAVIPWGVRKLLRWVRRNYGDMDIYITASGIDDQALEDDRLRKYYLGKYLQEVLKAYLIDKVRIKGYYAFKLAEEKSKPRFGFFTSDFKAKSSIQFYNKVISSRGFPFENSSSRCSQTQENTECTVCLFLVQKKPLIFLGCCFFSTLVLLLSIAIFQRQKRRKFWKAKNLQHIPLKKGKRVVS

Row | Molecule | amount of DNA synthesized (thymidine incorporation) [1] | co-precipitation (binding) with soluble betaKlotho protein (betaKlotho) | expression level of GLUT1 mRNA [2]
1 | FGF1: conventional FGF used as a control | promoted the DNA synthesis |  | 
2 | B1 |  | precipitated in the presence of betaKlotho | hardly changed

Source: US8697369B2, “Method for screening a test substance for activating a receptor associated with FGF 21 activity” (National Institute of Advanced Industrial Science and …, priority 2007, dated 2014)
